The results in this text go back to PMC3317499 (2012).

First the molecules themselves.
B1: Myc-Mal-TIR wild type (TIR domain of human MyD88 adaptor-like protein, residues 79-221, double-tagged with His6 and Myc) [human] / GST-TLR4-TIR (TIR domain of human TLR4, residues 670-839, GST fusion) [human] (parent complex)
chain 1: SSRWSKDYDVCVCHSEEDLVAAQDLVSYLEGSTASLRCFLQLRDATPGGAIVSELCQALSSSHCRVLLITPGFLQDPWCKYQMLQALTEAPGAEGCTIPLLSGLSRAAYPPELRFMYYVDGRGPDGGFRQVKEAVMRYLQTLS
chain 2: GENIYDAFVIYSSQDEDWVRNELVKNLEEGVPPFQLCLHYRDFIPGVAIAANIIHEGFHKSRKVIVVVSQHFIQSRWCIFEYEIAQTWQFLSSRAGIIFIVLQKVEKTLLRQQVELYRLLSRNTYLEWEDSVLGRHIFWRRLRKALLDGKSWNPEGTVGTGCNWQEATSI
B2: Myc-Mal-TIR wild type (TIR domain of human MyD88 adaptor-like protein, residues 79-221, double-tagged with His6 and Myc) [human] / GST-MyD88-TIR (TIR domain of human MyD88, residues 148-296, GST fusion) [human] (parent complex)
chain 1: B1 chain 1
chain 2: TTLDDPLGHMPERFDAFICYCPSDIQFVQEMIRQLEQTNYRLKLCVSDRDVLPGTCVWSIASELIEKRCRRMVVVVSDDYLQSKECDFQTKFALSLSPGAHQKRLIPIKYKAMKKEFPSILRFITVCDYTNPCTKSWFWTRLAKALSLP

Variants of B1 are the subject of the first test. Kind of test: GST pull-down, quantified Western blot; n = 3 separate experiments; parent: 1; read off a plot.
For the variant chain 1 SSRWSKDYDVCVCHSEEDLVAAQDLVSYLAGSTASLRCFLQLRDATPGGAIVSELCQALSSSHCRVLLITPGFLQDPWCKYQMLQALTEAPGAEGCTIPLLSGLSRAAYPPELRFMYYVDGRGPDGGFRQVKEAVMRYLQTLS [chain 1 E30A], the ratio to parent is approximately 0.39.

In the case of chain 1 SSRWSKDYDVCVCHSEEDLVAAQDLVSYLEGSTASLRCALQLRDATPGGAIVSELCQALSSSHCRVLLITPGFLQDPWCKYQMLQALTEAPGAEGCTIPLLSGLSRAAYPPELRFMYYVDGRGPDGGFRQVKEAVMRYLQTLS [chain 1 F39A], the ratio to parent was approximately 0.24.

In the next test the parent is B2. Described as above.
Consider chain 1 E30A, for which the ratio to parent was approximately 0.76.

For the variant chain 1 F39A, the ratio to parent was approximately 0.42.
